# Experiment: yeast display, Sf9 membrane polyspecificity reagent, FACS + sequencing; frameworks hold sequencing errors
# Outline: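 Synthetic nanobody libraries on Saccharomyces cerevisiae BJ5465 were galactose-induced for 36–48 hours, stained 1 hour at 4 °C with 10% biotinylated, detergent-solubilized Sf9 membrane reagent and enriched on streptavidin microbeads. FACS then separated cells into low and high (top ~1%) gates by anti-HA (expression) and streptavidin (reagent binding) fluorescence. Genes were colony-PCR amplified, MiSeq 2 × 250 sequenced and CDR-length filtered. A clone's polyreactivity label is that of its gate of origin.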
row,Sequence,polyreactivity (PSR sort gate)
1,QVQLVESGGGLVQAGGSLRLSCAASGRIFKWYAMGWYRQAPGKEREFVAAINWNGDSTHYADSVKGRFTISRDNAKNTVYLQMNSLKPEDTAVYYCNARVFVTRSYYWGQGTQVTVSS,low polyreactivity
2,QVQLVESGGGLVQAGGSLRLSCAASGRIFKYNAMGWYRPAPGKERELVAAISGTGGSTYYADSVKGRFTISRDNAKNTVYLQMNSLKPEDTAVYYCNRRYYGHSTWKYDYWGQGTQVTVSS,high polyreactivity
3,QVQLVESGGGLVQAGGSLRLSCAASGRIFKYYAMGWYRQAPGKERELVAAISARGGSTYYADSVKGRFTISRDNAKNTVYFQMNSLKPEDTAVYYCAAPYLTTQYERMYYWGQGTQVTVSS,high polyreactivity
4,QVQLVESGGGLVQAGGSLRLSCAASGRIFKYYAMGWYRQAPGKERELVAAISASGGSTYYADSVKGRFTISRDNAKNTVYLQMNSLKPEDTAVYYCAAATRRKRIWTATTRSEYWGQGTQVTVSS,high polyreactivity
5,QVQLVESGGGLVQAGGSLRLSCAASGRIFKYYTMGWYRQAPGKERELVAAISRDDSTNYADSVKGRFTISRDNAKNTVYLQMNSLKPEDTAVYYCAKGYHQYAGFYYWGQGTQVTVSS,high polyreactivity
6,QVQLVESGGGLVQAGGSLRLSCAASGRIFKYYVMGWYRQPPGKERELVAGISSSGGSTYYADSVKGRFTISRDNAKNTVYLQMNSLKPEDTAVYYCAADYTFAYYNVKMDYWGQGTQVTVSS,low polyreactivity
7,QVQLVESGGGLVQAGGSLRLSCAASGRIFLFYAMGWYRQAPGKESELVAAISVRGGSTYYADSVKGRFTISRDNAKNTVYLQMNSLKPEDTAVYYCAADYPKTYTSKFNYWGQVTQVTVSS,high polyreactivity
8,QVQLVESGGGLVQAGGSLRLSCAASGRIFLGYAMGWYRQAPGKERELVARITLIGGGTNYADSVKGRFTISRDNAKNTVYLQMNSLKPEDTAVYYCAAKSPLRPWWVGAVSGNYWGQGTQVTVSS,low polyreactivity
9,QVQLVESGGGLVQAGGSLRLSCAASGRIFLGYAMGWYRQAPGKERELVATITWNSDGTYYADSVKGRFTISRDNAKNTVYLQMNSLKPEDTAVYYCATDEGWPWYYYWGQGTQVTVSS,low polyreactivity
10,QVQLVESGGGLVQAGGSLRLSCAASGRIFLHYAMGWYRQAPGKERELVAGITKSGSSTYYADSVKGRFTISRDNAKNTVYLQMNSLKPEDTAVYYCAARKIHHHVYGAWPRYGYWGQGTQVTVSS,high polyreactivity
11,QVQLVESGGGLVQAGGSLRLSCAASGRIFLLYLMGWYRQAPGKERELVADITFSGGSTYYADSVKGRFTISRDNEKHTVYLQMNSLKPEDTAVYYCAARLFAAKYRYGYWGQGTQVTVSS,high polyreactivity
12,QVQLVESGGGLVQAGGSLRLSCAASGRIFLPYAMGWYRQAPGKERELVAGISSGGSTKYADSVKGRFTISRDNAKNTVYLQMNSLKPEDTAVYYCNRRFPIYGSRFGYYYWGQGTQVTVSS,high polyreactivity
13,QVQLVESGGGLVQAGGSLRLSCAASGRIFLPYAMGWYRQAPGKERELVAVITGRGGSTYYADAVKGRFTISRDNAKNTVYLQMNSLQPEDTAVYYCAAAYYRGRGYYWGQGTQVSVSS,high polyreactivity
14,QVQLVESGGGLVQAGGSLRLSCAASGRIFLRNAMGWYRQAPGKERELVATITSRGGSTYYADSVKGRFTISRDNAKTTVYLQMNSLKPEDTAVYYCAADPRRYRGFGYVYGGFYYWGQGTQVTVSS,low polyreactivity
15,QVQLVESGGGLVQAGGSLRLSCAASGRIFLRNDMVWYRQAPGKERELVAGISSDGSTYYADSVKGRFTISRDNAKNTVYLQMNSVKREDTAVYDCAAERWGKPTVFQFWRPYDYWGLGTQVTVSS,low polyreactivity
16,QVQLVESGGGLVQAGGSLRLSCAASGRIFLRYAMGGYRAAPGKERELVAAISTRGSSTYYADSVKGRFTNSRDNAKNTVYLQMNSLKPEDTAVYYCNKAWGPRRGVNVAFDYWGQGTQVTVSS,low polyreactivity
17,QVQLVESGGGLVQAGGSLRLSCAASGRIFLVNAKGWYRQAPGKERELVAAITYSGRSTYYAYSVKGRFTISRDNAKNTVYLQMNSLKPEDTSLYYCAALHHTQHDYWGQGTQVTVSS,low polyreactivity
18,QVQLVESGGGLVQAGGSLRLSCAASGRIFLVYAMGWYRQAPGKEREIVASISWSGGSTSYADTVKGLFTISRDNAKNNVSLQMNSLKPEDTAVYYCNAIRRPIFFRGRYYWGQGTQVTVSS,low polyreactivity
19,QVQLVESGGGLVQAGGSLRLSCAASGRIFLWNAMGWYRQAPGKERELVAAISWSGGSTYYADSVKGRFTISRDNAKNTVYLQMNSLKPEDTAVYYCNRLLSLEYGYWGQGTQVTVSS,high polyreactivity
20,QVQLVESGGGLVQAGGSLRLSCAASGRIFLWYAMGWYRQAPGKERELVAAIWRGGSTYYADSVKGRFTISRDNAKNTVYLQMNSLKPEDTAVYYCNAQRAPHWYYLFDYWGQGTQVTVSS,low polyreactivity
21,QVQLVESGGGLVQAGGSLRLSCAASGRIFLYYAMGWYRQAPGKERELVAAISRRGASTYYADSVKGRFTITRDNAKNTVYLQMNSLKPEDTAVYYCGSVPGKSGDYWGQGTQVTVSS,high polyreactivity
22,QVQLVESGGGLVQAGGSLRLSCAASGRIFLYYAMGWYRQAPGKERELVATISSGGSTHYADSVKGRFTISRDNAKNTVYLQMNSMKPEDTAVYYCAAYGYGRGLEPSTTEMDYWGQGTQVTVSS,low polyreactivity
23,QVQLVESGGGLVQAGGSLRLSCAASGRIFMPYAMGWYRQAPGKERELVAAITCTGGSTYYADSVKGRFTISRDNAKNTVYLQMNSPKPEDTAVYYCNARRGYQQHRRDYWGQGTQVTVSS,low polyreactivity
24,QVQLVESGGGLVQAGGSLRLSCAASGRIFNGNAMGWYRQAPGKERELVAAISYSGGATYYADSVKGRFTISRDNAKNTVYLQMNSLKPEDTAVYYCAAAAWDPKGSRYDYWGQGTQVTVSS,low polyreactivity
25,QVQLVESGGGLVQAGGSLRLSCAASGRIFNINAMGWYRQAPGKERELVAAITWRSGSTYYADSVKGRFTISRDNAKNTVYLQMKSLKPEDTAVYYCAADFSQTRRPIRFYYWGQGTQVTVSS,high polyreactivity
26,QVQLVESGGGLVQAGGSLRLSCAASGRIFNLNAMVRYRQAPGKERELVAAISKSGTRTYYADSVKGRFTISRDNAKNTVYLQMYSLKPEDTAVYYCGAEALYYDRLGWVYLRYDYWGQGTQVTVSS,high polyreactivity
27,QVQLVESGGGLVQAGGSLRLSCAASGRIFNLYAMGWYRQAPGKERELVAAISWGGGRTYYADSVKGRFTISRDNAKNTVYLQMNSLKPEDTAVYYCNAVYSPRYYVGGYDYWGQGTQVTVSS,high polyreactivity
28,QVQLVESGGGLVQAGGSLRLSCAASGRIFNLYDMGWYRQAPGKERELVAAITTGGDTTNYADSVKGRFTISRDNAKNTVYLQMNSLKPEDTAVYYCAADDGWIEPVYGYYEHEYWGQGTQVTVSS,low polyreactivity
29,QVQLVESGGGLVQAGGSLRLSCAASGRIFNPYAMGWYRQAPGKERELVAAISRGGRTYYADSVKGRFTISRDNAKNTVYLQMNSLKPEDTAVYYCNAGRGLREDDYWGQGTQVTVSS,low polyreactivity
30,QVQLVESGGGLVQAGGSLRLSCAASGRIFNQYGMGWYRQAPGKERELVASITGSGGTTYYADSVKGRFTISRDNAKNTVYLQMNSLKPEDTAVYYCAAVFYGFVGYYNEDYWGQGTQVTVSS,low polyreactivity

# From the nanobody polyreactivity screen of Harvey et al. (2022)
